Target: synthetic fragment of the mouse TLR-2 extracellular domain (mouse)

LMDKNLYGYTDEEIFKAS (modifications not checked) [LcrV193-210 synthetic peptide]
Kd: 0.35 nM

Source: US20060246084A1
